In the supplement of paper PMC10567573:

B1: LOC100129726 (parent)
chain: AKAADSPTRNDLESGLGHFSLRVH

Variants of: B1
Assay: protein stability index of a GFP-peptide fusion (GPS, HEK-293T) (PSI 1-6); higher = more stable
Conditions: c terminus: a fixed tail appended
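Further: lentivirally expressed fusions sorted by FACS into six bins by GFP to DsRed ratio, PSI derived from sequencing read proportions per bin multiplied by bin number.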

In order of rising protein stability index:
1. S14W  1.36
2. S20Y  1.58
3. H18W  1.59
4. L12Y  1.93
5. N10Y  1.97
6. T8W  1.98
7. S20F  2.05
8. G17F  2.08
9. H18F  2.1
10. T8M  2.12
11. S6M  2.16
12. P7Y  2.18
13. G15M  2.23
14. S20W  2.25
15. S6Y  2.26
16. A3Y  2.26
17. A3V  2.28
18. D5Y  2.3
19. D11T  2.3
20. H24F  2.32
21. E13I  2.32
22. D11G  2.33
23. S14C  2.34
24. N10F  2.38
25. L21F  2.38
26. H18L  2.38
27. R22W  2.4
28. G15A  2.4
29. A4V  2.4
30. D11H  2.42
31. R22F  2.43
32. T8I  2.45
33. D11N  2.47
34. G15V  2.48
35. H24C  2.49
36. N10M  2.51
37. N10V  2.56
38. D5L  2.56
39. G17H  2.57
40. A1F  2.6
41. H24V  2.61
42. H18Y  2.66
43. D5R  2.67
44. G15T  2.67
45. A3I  2.69
46. R22V  2.71
47. R9V  2.71
48. R9L  2.73
49. A1R  2.74
50. D11F  2.75
51. T8Y  2.75
52. P7I  2.75
53. S6V  2.77
54. S14R  2.78
55. N10T  2.79
56. E13S  2.8
57. P7S  2.81
58. S20M  2.87
59. G17K  2.89
60. A1L  2.9
61. S14G  2.9
62. S14T  2.94
63. E13D  2.95
64. R22S  2.98
65. N10K  2.98
66. K2S  2.99
67. K2L  3.03
68. A3Q  3.03
69. A4C  3.05
70. L12F  3.06
71. D5S  3.07
72. R9T  3.09
73. T8Q  3.1
74. F19Y  3.16
75. S6P  3.16
76. N10R  3.17
77. S20Q  3.17
78. G17N  3.18
79. P7T  3.2
80. K2I  3.21
81. K2P  3.23
82. K2T  3.27
83. P7E  3.28
84. S14A  3.28
85. T8D  3.31
86. F19L  3.31
87. A1K  3.34
88. A1S  3.36
89. K2H  3.38
90. V23N  3.43
91. L21W  3.45
92. P7H  3.45
93. V23C  3.45
94. R9M  3.46
95. A1E  3.47
96. S6E  3.5
97. H24Q  3.53
98. V23H  3.55
99. P7R  3.56
100. L16G  3.58
101. F19V  3.58
102. S6N  3.58
103. V23Q  3.58
104. H24S  3.6
105. L21M  3.6
106. P7D  3.64
107. R9D  3.64
108. V23A  3.67
109. K2A  3.68
110. A4T  3.7
111. L12M  3.78
112. S20P  3.81
113. G17D  3.82
114. N10Q  3.87
115. L12D  3.9
116. S14Y  3.97
117. L21Q  4
118. T8V  4.01
119. V23R  4.03
120. L21T  4.08
121. H18D  4.08
122. A4E  4.12
123. H24N  4.15
124. R9K  4.17
125. L21C  4.2
126. F19N  4.24
127. L21A  4.25
128. F19P  4.33
129. L21E  4.38
130. L12S  4.46
131. F19D  4.6
132. F19K  4.63
133. F19T  4.66
134. L21G  4.79
